The results in this text go back to patent publication US20140302123A1 (INSTITUT PASTEUR, published 2014).

The target of test [1] is DARL-13 (rabies virus (vampire bat RABV strain)). Description: NMR titration, 15N-labeled PTPN4-PDZ with unlabeled peptide.
Test [2] has as its target T1, Cyto13-vir (rabies virus (CVS-NIV RABV strain)). The test is described as above.
In test [3] the target is T1, Cyto13-vir. Description: NMR titration (rounded value in the text).

B1: PTPN4-PDZ (residues G499-N604) (other)
chain: GSPEKPTPNGGIPHDNLVLIRMKPDENGRFGFNVKGGYDQKMPVIVSRVAPGTPADLCVPRLNEGDQVVLINGRDIAEHTHDQVVLFIKASCERHSGELMLLVRPN
notes: range 500-604; also called PDZ of PTPN4; PTPN4 PDZ domain
Regarding B1, the Kd (commonly a measure of binding affinity in units of concentration) in test [1] was found to be 1280 µM; in test [2], 568 µM; in test [3], 560 µM.
